Reference: patent US20230414771A1, “PREPARATION AND USE OF IMMUNOSTIMULATORY CONJUGATED COMPLEXES FOR TARGETED DELIVERY AND ACTIVATION” (YAFEI SHANGHAI BIOLOGY MEDICINE SCIENCE & TECHNOLOGY CO., …, priority 2020, published 2023)
*1 amine or outer side, *2 acyl side, *3 side chain or, on linkers, in order; H or OH if unused. Where a SMILES comes first, the peptide text is derived from it. [ ]: non-standard residue; d: D form. The star is where a group is joined. Dovitinib(4-NH) = CN1CCN(c2ccc3nc(-c4c(N*)c5c(F)cccc5[nH]c4=O)[nH]c3c2)CC1; Hexanoyl(6-maleimido) = O=C1C=CC(=O)N1CCCCCC(=O)*; Resiquimod = CCOCc1nc2c(N*)nc3ccccc3c2n1CC(C)(C)O; Propanoyl(3-maleimido) = O=C1C=CC(=O)N1CCC(=O)*; PABC = O=C(OCc1ccc(N[*:1])cc1)[*:2]; PEG3 = NCCOCCOCCOCCC(=O)O

Test: Water solubility test (observation and HPLC)
Format: physicochemical
Details: thermodynamic from solid
Method: The compounds prepared in accordance with the examples of the disclosure and the reference compounds C1, C2, C3 and C4 were lyophilized (−70° C.).

SMILES	solubility
CCOCc1nc2c(NC(=O)OCc3ccc(NC(=O)[C@@H](CC(N)=O)NC(=O)[C@H](C)NC(=O)[C@H](C)NC(=O)CCOCCOCCN4C(=O)C=CC4=O)cc3)nc3ccccc3c2n1CC(C)(C)O [QHL-005-Resiquimod]	> 10000 µg/mL
CCOCc1nc2c(NC(=O)OCc3ccc(NC(=O)[C@@H](CC(N)=O)NC(=O)[C@H](C)NC(=O)[C@H](C)NC(=O)CCOCCOCCOCCN4C(=O)C=CC4=O)cc3)nc3ccccc3c2n1CC(C)(C)O [QHL-006-Resiquimod]	> 10000 µg/mL
CCOCc1nc2c(NC(=O)OCc3ccc(NC(=O)[C@H](CC(N)=O)NC(=O)[C@H](C)NC(=O)[C@H](C)NC(=O)CCOCCOCCOCCOCCOCCOCCN4C(=O)C=CC4=O)cc3)nc3ccccc3c2n1CC(C)(C)O [QHL-008-Resiquimod]	> 10000 µg/mL
C[C@@H](NC(=O)CCOCCOCCNC(=O)CCN1C(=O)C=CC1=O)C(=O)N[C@H](C)C(=O)N[C@H](CC(N)=O)C(=O)Nc1ccc(COC(=O)Nc2c(-c3nc4ccc(N5CCN(C)CC5)cc4[nH]3)c(=O)[nH]c3cccc(F)c23)cc1 [QHL-086 - Dovitinib]	> 20000 µg/mL
CCOCc1nc2c(NC(=O)OCc3ccc(NC(=O)[C@H](CC(N)=O)NC(=O)[C@H](C)NC(=O)[C@H](C)NC(=O)CCOCCOCCNC(=O)CCN4C(=O)C=CC4=O)cc3)nc3ccccc3c2n1CC(C)(C)O [QHL-086-Resiquimod]	> 10000 µg/mL
C[C@@H](NC(=O)CCOCCOCCNC(=O)CCN1C(=O)C=CC1=O)C(=O)N[C@H](C)C(=O)N[C@H](CC(N)=O)C(=O)Nc1ccc(COC(=O)Nc2nccc(-c3sc(C(C)(C)C)nc3-c3cccc(NS(=O)(=O)c4c(F)cccc4F)c3F)n2)cc1 [QHL-086-dabrafenib]	> 20000 µg/mL
C[C@@H](NC(=O)CCOCCOCCOCCNC(=O)CCN1C(=O)C=CC1=O)C(=O)N[C@H](C)C(=O)N[C@H](CC(N)=O)C(=O)Nc1ccc(COC(=O)Nc2c(-c3nc4ccc(N5CCN(C)CC5)cc4[nH]3)c(=O)[nH]c3cccc(F)c23)cc1 [QHL-089 - Dovitinib]	> 20000 µg/mL
C[C@@H](NC(=O)CCOCCOCCNC(=O)CCN1C(=O)C=CC1=O)C(=O)N[C@H](C)C(=O)N[C@H](CC(N)=O)C(=O)Nc1ccc(COC(=O)N2CC(C)(C)c3ccc(NC(=O)c4cccnc4NCc4ccncc4)cc32)cc1 [QHL-089-Motesani]	> 20000 µg/mL
CCOCc1nc2c(NC(=O)OCc3ccc(NC(=O)[C@@H](CC(N)=O)NC(=O)[C@H](C)NC(=O)[C@H](C)NC(=O)CCOCCOCCOCCNC(=O)CCN4C(=O)C=CC4=O)cc3)nc3ccccc3c2n1CC(C)(C)O [QHL-089-Resiquimod]	> 10000 µg/mL
C[C@@H](NC(=O)CCOCCOCCOCCNC(=O)CCN1C(=O)C=CC1=O)C(=O)N[C@H](C)C(=O)N[C@H](CC(N)=O)C(=O)Nc1ccc(COC(=O)Nc2nccc(-c3sc(C(C)(C)C)nc3-c3cccc(CS(=O)(=O)c4c(F)cccc4F)c3F)n2)cc1 [QHL-089-dabrafenib]	> 20000 µg/mL
CC(C)C[C@H](NC(=O)[C@H](CC(N)=O)NC(=O)[C@H](C)NC(=O)[C@H](C)NC(=O)CCOCCOCCOCCNC(=O)CCN1C(=O)C=CC1=O)C(=O)Nc1c(-c2nc3ccc(N4CCN(C)CC4)cc3[nH]2)c(=O)[nH]c2cccc(F)c12 [QHL-090 - Dovitinib] ({Propanoyl(3-maleimido)-PEG3}-AANL-{Dovitinib(4-NH)})	> 10000 µg/mL
CCOCc1nc2c(NC(=O)OCc3ccc(NC(=O)C(CC(N)=O)NC(=O)[C@H](C)NC(=O)[C@H](C)NC(=O)CCOCCOCCOCCOCCNC(=O)CCN4C(=O)C=CC4=O)cc3)nc3ccccc3c2n1CC(C)(C)O (some centres unmarked) [QHL-092-Resiquimod]	> 10000 µg/mL
CCOCc1nc2c(NC(=O)OCc3ccc(NC(=O)[C@H](CC(N)=O)NC(=O)[C@H](C)NC(=O)[C@H](C)NC(=O)CCOCCOCCOCCOCCOCCOCCNC(=O)CCN4C(=O)C=CC4=O)cc3)nc3ccccc3c2n1CC(C)(C)O [QHL-095-Resiquimod]	> 10000 µg/mL
CCOCc1nc2c(NC(=O)OCc3ccc(NC(=O)[C@H](CC(N)=O)NC(=O)[C@H](C)NC(=O)[C@H](C)NC(=O)[C@H](CCC(=O)O)NC(=O)CCCCCN4C(=O)C=CC4=O)cc3)nc3ccccc3c2n1CC(C)(C)O [QHL-116-Resiquimod] ({Hexanoyl(6-maleimido)}-EAAN[PABC]-Resiquimod)	> 10000 µg/mL
